Variants at the floor of the assay were thinned out.
B1: TPR 5TU (parent)
chain: GGAUCUUCUCGAUCUAACAAAAAAGACAAAUCUGCCACAAAGCUUGAGAGCAUCUUCGGAUGCAGAGGCGGCAGCCUUCGGUGGCGCGAUAGCGCCAACGUUCUCAACUAUGACACGCAAAACGCGUGCUCCGUUGAAUGGAGUUUAUCAUG

Variants of: B1
Assay: polymerase ribozyme fitness, log enrichment relative to wild type (log ratio); higher = more active; in vitro selection for triplet polymerase activity
Outline: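 Fitness measures genotype enrichment against wild-type enrichment on a logarithmic scale, with inverse-variance-weighted averaging of replicates. The logarithm is base 2, and genotypes were kept only with ≥10 input reads and ≥1 read per output in Illumina sequencing. The sequenced libraries came from one triplicate in vitro selection round, including frozen incubation at −7 °C, of PCR-built, transcribed mutant libraries of each subunit of a heterodimeric triplet polymerase ribozyme.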

Row | Variant | polymerase ribozyme fitness (log ratio)
1 | GGAUCUUCUCGAGCUAACAAAAAAGUCAAAUCUGCCACAAAGCUUGAGAGCAUCUUCGGAUGCAGAGGCGGCAGCCUUCGGUGGCGCGAUAGCGCGAACGUUCUCAACUAUGACACGCAGAACGCGUGCUCCGUUGAAUGGAGUUUAUCAUG | ≤ -4.2
2 | GGAUCUUCUCGAGCUAACAAAAAAGACAAAUCUGCCACAACGCUUGAGAGCAUCUUCGGAUGCAGAGGCGGCAGCCUUCGGUGGCGCGAUAGCGCUAACGUUCUCAUCUAUGACACGCAAAACGCGUGCUACAUUGAAUGGAGUUCAUCAUG | ≤ -4.2
3 | GGAUCUUCUCGAGCUAACAAAAAAGACAAAUCUGCCACAACGCUUGAGAGCAUCGUCGGAUGCAGAGGCGGCAGCCUUCGGUGGCGCGAUAGCCCCAACGUUCUCAACUAUGACAAGCAAAACGCGUGCUCCGUUGAAUGGAUUUUAUCAGG | ≤ -4.2
4 | GGAUCUUCUCGAGCUAACAAAAAAGACAAAUCUGCCACACAGCUUGAGAGCAUCUUCGGAUGCAGAGGCGGCAGCCUUCGGUGGCGCGAUAGCGCGAACGUUCUCAACUAUGACACGCGAAACGCGUGCUCCGUUGAAUGGAGUUUAUCAUG | -1.98
5 | GGAUCUUCUCGAGCUAACAAAAAAGACAUAUCUGCCACAAAGCUUGAGAGCAUCUUCGGAUGCAGAGGCGGCAGCCUUCGGUGGCGCGAUAGUGCCAACGUUCUCAACUAUGACACGCAAAACGCGUGGUCCGUUGAAUGGAGUUUAUCAUG | ≤ -4.2
6 | GGAUCUUCUCGAGCUAACAAAAAAGACAAAUCUGCCACAUAGCUUGAGAGCAUCUUCGGCUGCAGAGGCGGCAGCCUUCGGUGGCGCGAUAGCGCCAACGUUCUCAACUAUGACACGCAAAACGCGUGCUCCGUUGAAUGGAGUUUAUCAUG | ≤ -4.2
7 | GGAUCUUCUCGAGCUAACAAAAAAGACAAAUCUGCCACAUAGCUUGAGAGCAUCUUCGGAUGCAGAGGCGGCAGCCUUCGGUGGCGCGAUAGCGCGAACGUUCUCAACUAUGACACGCAAGACGCGUGCUCCGUUGAAUGGAGUUUAUCAUG | -2.57
8 | GGAUCUUCUCGAGCUAACAAAAACGACAAAUCUGACACAAAGCUUGAGUGCAUCUUCGGAUGCAGAGGCGGCAGCGUUCGGUGGCGCGAUCGCGCCAACGUUCUCAACUAUGACACGCAAAACGCGUGCUCCGUUGAAUGGAGUUUAUCAUG | ≤ -4.2
9 | GGAUCUUCUCGAGCUAACAAAAAAGUCAAAUGAGCCACAAAGCUUGAGAGCAUGUUCGGAUGCAGUGGCGGCAGCCUUCGGUGGCGCGAUAGCGCCAACGUUCUCAACUAUGACACGAAAAACGCGUGCUCCGUUGAAUGGAGAUUAUCAUG | ≤ -4.2
10 | GGAUCUUCUCGAGCUAACAAAAAAGACAAAUCUGCCUCAAAGUUUGAGAGCCUCUUCGGAUGCAGAGGCGGCCGCCUUCGGUGCCGCGAUAGCGCCAACGUUCUCAACCAUGACACGCAAAACGCGUGCUCCGUUGAAUAGAGUUUAUCAUG | ≤ -4.2
11 | GGAUCUUCUCGAGCUAACAUAAAAGACAAAUCUGCCACAAAGCUUGAGAGCAUCUUAGGAUGCAGAGGCGGCAGCCUUCGGUGGCGCGAUAGCGAAAACGUUCUCAACUAUGACACGCAAAACGCGUGCCCCGUUGAAUGGAGUUUAUCAUG | ≤ -4.2
12 | GGAUCUUCUCGAGCUAACAAAAAAGACAAAUCUGCCACAAAGCUUGCGAGCAUCUUCGGAUGCAGAGGCGGCAGCCUUCGGUGGCGCCAUUGCGCCAACGUUCUUAACUAUGACACGCAAAACGCGUGCUCCGUUGAAUGGAGUUUAUCAUG | ≤ -4.2
13 | GGAUCUUCUCGAGCUAACAAAAAAGACAAAUCUGCCACAAGGCUUGAGAGCAUGUUCGGAUGCAGAGGCGGCAGCCUUCGAUGGCGCGAUAGCGCGAACGUUCUCAACUAUGACACGUAAAACGCGUGCUCCGUUGAAUGGAGUUUAUCAUG | ≤ -4.2
14 | GGAUCUUCUCGAGCUAACAAUAAAGACAAAUGUGCCACAAAGCUUGAGAGCAUCUUCGGAUGCAGAGGCGGCUGCCUACGGUGGCGAGAUAGCGCCAACGUUCUCAACUAUGACACGAAAAACGCGUGCUCCGUUGAAUGGAGUUUAUCAUG | ≤ -4.2
15 | GGAUCUUCUCGAGCUAACAACAAAGACAAAUCUGCCACAAAGCUUGAUAGCAUCUUCGGAUGCAGAGGCGGCAGCCUUCGGUGGCGCGAUAGCGCCAACGUUCUCAACUAUGACACGCAAAACGCGUGCUCCGUUGAAUGGAGUUUAUCAUG | -1.33
16 | GGAUCUUCUCGAGCUAACAAAAAAGGCAAAGCUGCCACAAAGCUUGAGAGGAUCUUCGGAUGCAGAGGCGGCAGCCUUCGGUGGCGCCAUAGCGCCAACGUUCUCAACUAUGACACGCAAAACGCGUGCUCCGUUGAAUGGAGUUUAUCAUG | ≤ -4.2
17 | GGAUCUUCUCGAGCUAACAAAAAAGACUAAUCUGCCACAAAGCUUGAGAGCAUCUUCGGAUGCCGAGACGGCAGCCUUUGGUGGCGCGAUAGCGCCAACGUUCUCAACUAUGACACGCAAAACGCGUGCUCCGUUGAAUGGAGUUUAUCAUG | ≤ -4.2
18 | GGAUCUUCUCGAGCUAACAAUCAAGACAAAUCUGCCACAAAGCUUGAGAGCAUCUUCGGAUGCAGAGGCGGCAGCCUUCGGGGGCGCGAUAUCGCCACCGUUCUCAACUAUGACAUGCAAAACGCGUGCUCCGUUGAAUGGAGUUUAUCAUG | -1.59
19 | GGAUCUUCUCGAGCUAACAAAAAAGACGAAUCUGCCACAAAGCUUGAGAGCAACUUCGGAUGCUGAGGCGGCAGCCUUCGGUGGCGCGAUAGCGCCAACGUUCUCAACUAUGACACGCAAAACGCGUGCUCCGUUGAAUGUAGUGUAUCAUA | ≤ -4.2

Source: the RNAGym collection of RNA variant scans (doi:10.1073/pnas.2313332121)
